Results reported in patent US20180305409A1 (SHAANXI MICOT TECHNOLOGY, published 2018).
Bridge positions count the residues as written; N and C are the ends. Square brackets hold non-standard residues; d marks the D form. Ends that are not written are not given here. hArg = N=C(N)NCCCC[C@H](N)C(=O)O

B1: polypeptide 3 (peptide)
peptide: FPRPGGGGNGDFEEIPEEYLCXGDWPC
modifications: D-Phe at position 1 (N-terminal); Har (homoarginine) at position 22; disulfide bond between the two Cys (21 and 27)

Key:
human thrombin = human thrombin (human, UniProt P00734 328-622); assay: cell-based or functional assay
[1] = biological target: platelet GPIIb/IIIa receptor (human, UniProt P08514 32-1039; P05106 27-788); assay: cell-based or functional assay
Chain of platelet GPIIb/IIIa receptor (P08514 32-1039, chain 1 of 2): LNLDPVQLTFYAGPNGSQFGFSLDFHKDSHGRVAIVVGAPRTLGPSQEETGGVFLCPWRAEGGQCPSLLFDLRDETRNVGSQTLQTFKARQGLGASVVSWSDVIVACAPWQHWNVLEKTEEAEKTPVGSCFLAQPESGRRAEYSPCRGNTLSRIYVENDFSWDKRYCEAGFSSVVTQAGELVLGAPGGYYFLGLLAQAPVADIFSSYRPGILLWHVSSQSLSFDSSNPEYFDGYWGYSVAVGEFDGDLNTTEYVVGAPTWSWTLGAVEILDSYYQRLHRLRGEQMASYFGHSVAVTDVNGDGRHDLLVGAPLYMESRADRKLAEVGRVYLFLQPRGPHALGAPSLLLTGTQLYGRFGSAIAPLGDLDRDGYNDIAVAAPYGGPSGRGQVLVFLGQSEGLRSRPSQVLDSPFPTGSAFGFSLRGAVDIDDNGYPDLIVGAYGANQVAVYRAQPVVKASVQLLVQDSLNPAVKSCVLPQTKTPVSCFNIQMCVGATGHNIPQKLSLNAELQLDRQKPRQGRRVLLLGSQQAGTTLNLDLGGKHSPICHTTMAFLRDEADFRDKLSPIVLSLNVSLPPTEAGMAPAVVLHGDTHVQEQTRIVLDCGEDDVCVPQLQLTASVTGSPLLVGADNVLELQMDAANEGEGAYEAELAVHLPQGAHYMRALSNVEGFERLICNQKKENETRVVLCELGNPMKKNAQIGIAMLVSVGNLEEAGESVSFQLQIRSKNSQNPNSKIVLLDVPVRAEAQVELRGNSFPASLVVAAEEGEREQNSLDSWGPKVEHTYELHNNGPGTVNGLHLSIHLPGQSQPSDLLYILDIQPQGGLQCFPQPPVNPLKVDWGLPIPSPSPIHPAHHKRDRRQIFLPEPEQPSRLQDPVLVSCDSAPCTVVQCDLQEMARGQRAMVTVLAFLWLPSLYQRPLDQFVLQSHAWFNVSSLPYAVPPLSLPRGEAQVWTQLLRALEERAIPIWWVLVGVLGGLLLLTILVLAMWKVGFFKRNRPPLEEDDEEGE
Chain of platelet GPIIb/IIIa receptor (P05106 27-788, chain 2 of 2): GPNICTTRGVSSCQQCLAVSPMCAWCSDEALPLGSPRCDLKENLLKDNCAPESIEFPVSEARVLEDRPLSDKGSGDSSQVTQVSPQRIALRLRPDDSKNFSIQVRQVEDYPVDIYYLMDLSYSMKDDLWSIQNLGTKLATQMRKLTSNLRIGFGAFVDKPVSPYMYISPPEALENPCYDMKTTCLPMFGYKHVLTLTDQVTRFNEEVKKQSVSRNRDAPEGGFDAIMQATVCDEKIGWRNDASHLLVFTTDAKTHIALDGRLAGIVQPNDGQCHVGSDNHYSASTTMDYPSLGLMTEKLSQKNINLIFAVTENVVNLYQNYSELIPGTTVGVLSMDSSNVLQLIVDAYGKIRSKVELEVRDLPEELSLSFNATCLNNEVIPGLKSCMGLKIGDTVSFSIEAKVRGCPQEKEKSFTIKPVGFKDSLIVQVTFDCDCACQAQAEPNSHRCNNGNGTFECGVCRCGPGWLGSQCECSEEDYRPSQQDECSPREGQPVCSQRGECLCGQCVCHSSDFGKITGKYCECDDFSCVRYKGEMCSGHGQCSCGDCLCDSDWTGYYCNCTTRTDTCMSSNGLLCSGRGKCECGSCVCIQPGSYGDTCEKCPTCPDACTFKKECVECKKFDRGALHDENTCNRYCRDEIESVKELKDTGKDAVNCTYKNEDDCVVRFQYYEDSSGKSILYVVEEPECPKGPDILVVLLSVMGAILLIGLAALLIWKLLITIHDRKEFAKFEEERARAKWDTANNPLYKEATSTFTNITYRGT

Binder | APTT(S), human platelet poor plasma in vitro, 1 × 10^-6 mol/L (saline 33.10) (human thrombin) | Fold of Prolongation in APTT, 1 × 10^-6 mol/L (human thrombin) | Fold of Prolongation in PT, 1 × 10^-6 mol/L (human thrombin) | PT(S), human platelet poor plasma in vitro, 1 × 10^-6 mol/L (saline 11.22) (human thrombin) | TT(S), human platelet poor plasma in vitro, 1 × 10^-6 mol/L (saline 14.07) (human thrombin) | Inhibitory rate of platelet aggregation (%), ADP-induced human platelet aggregation in vitro, 1 × 10-5 mol/L [1] | Inhibitory rate of platelet aggregation (%), ADP-induced human platelet aggregation in vitro, 3 × 10-6 mol/L [1] | Platelet aggregation rate (%), ADP-induced human platelet aggregation in vitro, 1 × 10-5 mol/L (saline 73.39) [1] | Platelet aggregation rate (%), ADP-induced human platelet aggregation in vitro, 3 × 10-6 mol/L (saline 73.39) [1]
[dF]PRPGGGGNGRFEEIPEEYLEAAAKC[hArg]GDWPC (disulfide 26-32) [polypeptide 2] | 104 s | 3.35 fold | 3.04 fold | 34.8 s | > 180 s | 100% | 66.7% | 0% | 26.1%
B1 | 102 s | 2.94 fold | 2.14 fold | 25.7 s | > 180 s | 47.1% | 26.4% | 35.4% | 57.9%
